B1: human 20S proteasome subunit α2 (natural protein)
chain: MAERGYSFSLTTFSPSGKLVQIEYALAAVAGGAPSVGIKAANGVVLATEKKQKSILYDERSVHKVEPITKHIGLVYSGMGPDYRVLVHRARKLAQQYYLVYQEPIPTAQLVQRVASVMQEYTQSGGVRPFGVSLLICGWNEGRPYLFQSDPSGAYFAWKATAMGKNYVNGKTFLEKRYNEDLELEDAIHTAILTLKESFEGQMTEDNIEVGICNEAGFRRLTPTEVKDYLAAIA
notes: 20S proteasome subunit α2, human; named only as α2; Stood in the experiment as a subunit of the whole 20S core particle; source: bought: Boston Biochem, as part of the human 20S proteasome
B2: human 20S proteasome subunit α3 (natural protein)
chain: MSRRYDSRTTIFSPEGRLYQVEYAMEAIGHAGTCLGILANDGVLLAAERRNIHKLLDEVFFSEKIYKLNEDMACSVAGITSDANVLTNELRLIAQRYLLQYQEPIPCEQLVTALCDIKQAYTQFGGKRPFGVSLLYIGWDKHYGFQLYQSDPSGNYGGWKATCIGNNSAAAVSMLKQDYKEGEMTLKSALALAIKVLNKTMDVSKLSAEKVEIATLTRENGKTVIRVLKQKEVEQLIKKHEEEEAKAEREKKEKEQKEKDK
notes: 20S proteasome subunit α3, human; named only as α3; Stood in the experiment as a subunit of the whole 20S core particle; source: bought: Boston Biochem, as part of the human 20S proteasome
B3: human 20S proteasome subunit α5 (natural protein)
chain: MFLTRSEYDRGVNTFSPEGRLFQVEYAIEAIKLGSTAIGIQTSEGVCLAVEKRITSPLMEPSSIEKIVEIDAHIGCAMSGLIADAKTLIDKARVETQNHWFTYNETMTVESVTQAVSNLALQFGEEDADPGAMSRPFGVALLFGGVDEKGPQLFHMDPSGTFVQCDARAIGSASEGAQSSLQEVYHKSMTLKEAIKSSLIILKQVMEEKLNATNIELATVQPGQNFHMFTKEELEEVIKDI
notes: 20S proteasome subunit α5, human; named only as α5; Stood in the experiment as a subunit of the whole 20S core particle; source: bought: Boston Biochem, as part of the human 20S proteasome
B4: human 20S proteasome subunit α4 (natural protein)
chain: MSYDRAITVFSPDGHLFQVEYAQEAVKKGSTAVGVRGRDIVVLGVEKKSVAKLQDERTVRKICALDDNVCMAFAGLTADARIVINRARVECQSHRLTVEDPVTVEYITRYIASLKQRYTQSNGRRPFGISALIVGFDFDGTPRLYQTDPSGTYHAWKANAIGRGAKSVREFLEKNYTDEAIETDDLTIKLVIKALLEVVQSGGKNIELAVMRRDQSLKILNPEEIEKYVAEIEKEKEENEKKKQKKAS
notes: 20S proteasome subunit α4, human; named only as α4; Stood in the experiment as a subunit of the whole 20S core particle; source: bought: Boston Biochem, as part of the human 20S proteasome
B5: human 20S proteasome subunit α7 (natural protein)
chain: MSSIGTGYDLSASTFSPDGRVFQVEYAMKAVENSSTAIGIRCKDGVVFGVEKLVLSKLYEEGSNKRLFNVDRHVGMAVAGLLADARSLADIAREEASNFRSNFGYNIPLKHLADRVAMYVHAYTLYSAVRPFGCSFMLGSYSVNDGAQLYMIDPSGVSYGYWGCAIGKARQAAKTEIEKLQMKEMTCRDIVKEVAKIIYIVHDEVKDKAFELELSWVGELTNGRHEIVPKDIREEAEKYAKESLKEEDESDDDNM
notes: 20S proteasome subunit α7, human; named only as α7; Stood in the experiment as a subunit of the whole 20S core particle; source: bought: Boston Biochem, as part of the human 20S proteasome

Each molecule was assayed against T1, human proteasome activator 200 (PA200) (human, UniProt Q14997 1-1843) (assay: cryo-EM structure; 3 μl 20S-CP (approximately 1.4 mg/ml) incubated with 6 μl PA200 (approximately 0.44 mg/ml) in ice for 1 h; single-capped PA200-20S particles selected; 2.72 Å). Details: both partners purified.
T1 construct: Carries the cofactors 5,6[PP]2-InsP4 and InsP6 in its two openings; The results say 1,844 residues, the methods 1-1,843; source: Trichoplusia ni (Hi5) insect cells, baculovirus (Bac-to-Bac), purified (Ni-NTA, gel filtration on Superose 6)
T1 sequence (Q14997 whole entry): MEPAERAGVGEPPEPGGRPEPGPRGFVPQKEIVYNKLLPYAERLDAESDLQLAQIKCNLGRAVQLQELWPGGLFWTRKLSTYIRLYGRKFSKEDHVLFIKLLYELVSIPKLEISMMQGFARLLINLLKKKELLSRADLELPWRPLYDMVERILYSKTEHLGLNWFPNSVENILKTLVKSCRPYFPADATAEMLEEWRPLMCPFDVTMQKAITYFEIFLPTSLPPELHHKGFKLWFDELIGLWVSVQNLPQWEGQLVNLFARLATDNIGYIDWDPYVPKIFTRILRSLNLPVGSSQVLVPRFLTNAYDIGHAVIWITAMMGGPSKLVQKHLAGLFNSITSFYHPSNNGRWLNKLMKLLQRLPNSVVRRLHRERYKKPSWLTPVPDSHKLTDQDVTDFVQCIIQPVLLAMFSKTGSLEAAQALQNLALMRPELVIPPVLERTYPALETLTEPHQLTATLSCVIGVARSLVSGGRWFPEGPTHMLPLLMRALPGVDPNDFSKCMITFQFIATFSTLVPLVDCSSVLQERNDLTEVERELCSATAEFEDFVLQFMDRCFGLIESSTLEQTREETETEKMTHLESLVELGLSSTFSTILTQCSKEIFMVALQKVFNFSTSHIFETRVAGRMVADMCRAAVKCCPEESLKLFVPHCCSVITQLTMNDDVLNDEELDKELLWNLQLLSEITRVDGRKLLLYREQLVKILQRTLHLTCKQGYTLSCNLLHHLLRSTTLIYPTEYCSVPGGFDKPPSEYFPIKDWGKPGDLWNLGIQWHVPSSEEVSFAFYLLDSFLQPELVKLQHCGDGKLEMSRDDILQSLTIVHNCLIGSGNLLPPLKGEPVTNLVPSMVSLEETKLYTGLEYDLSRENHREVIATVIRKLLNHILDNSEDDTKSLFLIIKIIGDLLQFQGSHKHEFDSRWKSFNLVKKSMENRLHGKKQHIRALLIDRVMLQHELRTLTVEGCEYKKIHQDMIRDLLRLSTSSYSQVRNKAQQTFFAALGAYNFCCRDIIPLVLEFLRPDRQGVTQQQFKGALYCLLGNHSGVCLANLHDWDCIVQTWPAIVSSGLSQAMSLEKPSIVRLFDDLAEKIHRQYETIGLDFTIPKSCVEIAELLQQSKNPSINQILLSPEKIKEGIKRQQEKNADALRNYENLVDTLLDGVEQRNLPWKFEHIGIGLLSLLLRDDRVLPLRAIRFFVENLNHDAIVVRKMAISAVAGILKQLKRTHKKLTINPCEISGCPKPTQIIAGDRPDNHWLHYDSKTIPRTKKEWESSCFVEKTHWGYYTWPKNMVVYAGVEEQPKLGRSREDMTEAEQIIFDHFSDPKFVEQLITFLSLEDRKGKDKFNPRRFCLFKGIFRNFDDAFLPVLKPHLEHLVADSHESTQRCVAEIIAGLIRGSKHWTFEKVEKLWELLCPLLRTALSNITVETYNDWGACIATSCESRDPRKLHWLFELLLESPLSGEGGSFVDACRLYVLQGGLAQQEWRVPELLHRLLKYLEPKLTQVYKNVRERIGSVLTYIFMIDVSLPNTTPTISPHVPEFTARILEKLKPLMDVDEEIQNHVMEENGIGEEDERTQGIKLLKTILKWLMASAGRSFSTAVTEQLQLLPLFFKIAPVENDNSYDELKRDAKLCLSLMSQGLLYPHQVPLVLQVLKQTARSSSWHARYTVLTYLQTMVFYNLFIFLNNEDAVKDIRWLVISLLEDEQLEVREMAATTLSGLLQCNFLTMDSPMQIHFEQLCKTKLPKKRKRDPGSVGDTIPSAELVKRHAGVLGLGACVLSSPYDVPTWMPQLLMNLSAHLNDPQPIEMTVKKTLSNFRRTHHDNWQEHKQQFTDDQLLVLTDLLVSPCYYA

Row | Molecule | binding result
1 | B1 | binds
2 | B2 | binds
3 | B3 | binds
4 | B4 | binds
5 | B5 | binds

What follows are molecules tested against human 20S proteasome core particle (human) (UniProt P60900) (assay: not given). Details: not given.
Chain of human 20S proteasome core particle (human) (P60900 whole entry, looked up): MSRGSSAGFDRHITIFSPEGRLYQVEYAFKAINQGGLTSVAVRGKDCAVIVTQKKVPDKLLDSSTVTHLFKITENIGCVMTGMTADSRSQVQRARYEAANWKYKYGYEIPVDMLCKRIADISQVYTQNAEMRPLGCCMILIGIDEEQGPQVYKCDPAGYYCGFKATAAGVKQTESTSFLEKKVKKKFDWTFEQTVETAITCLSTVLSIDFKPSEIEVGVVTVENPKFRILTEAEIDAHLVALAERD

Row | Molecule | Vmax of cleavage of Suc-LLVY-AMC (chymotryptic-like activity) by PA200-20S, 2.5 nM; 20S alone 3.14 μM/min [µM/min]
6 | human proteasome activator 200 (PA200) (from UniProt Q14997 1-1843) (natural protein) | 11.4
